Measurements taken from patent US20260132207A1 (ACCELERON PHARMA, published 2026).
Substitutions are numbered along the chain they refer to. Values belong to the binder of their own block, whether it stands above or below them.

Assays:
[1] = biological target: T1, dimeric hActRIIA (human, UniProt P27037 20-135); assay: SPR (Biacore), 37 C, antibody captured on anti-hFc IgG chip, dimeric ActRIIA injected
T1 construct: also called ActRIIA DIMER; ActRIIA dimer
Description: (§1) Kinetic characterization of J01, K01, L01, M01, N01, and P01 antibodies binding to monomeric and dimeric hActRIIB and hActRIIA was performed using standard BIACORE®-based analysis at 37° C. In brief, antibodies were captured on anti-hFclgG Biacore chips and different concentrations of dimeric and monomeric ActRIIB or ActRIIA were injected in duplicates over the captured antibody and control surface. To obtain kinetic rate constants the data were double referenced and fit to a 1:1 interaction model using BiaEvaluation software (GE Healthcare). The equilibrium binding constant KD was determined by the ratio of binding rate constants kd/kₐ

[2] = biological target: T2, dimeric hActRIIB (human, UniProt Q13705 19-134); assay: SPR (Biacore), 37 C, antibody captured on anti-hFc IgG chip, dimeric ActRIIB injected, 1:1 model
T2 construct: also called ActRIIB DIMER; ActRIIB dimer
Description: as §1

[3] = biological target: T2, dimeric hActRIIB; assay: SPR (Biacore), 37 C, antibody captured on anti-hFc IgG chip, dimeric ActRIIB injected, KD = kd/ka
Description: as §1

[4] = biological target: T3, monomeric hActRIIB (human, UniProt Q13705 19-134, limits assumed); assay: SPR (Biacore), 37 C, antibody captured on anti-hFc IgG chip, monomeric ActRIIB injected, 1:1 model
T3 construct: also called ActRIIB MONOMER; ActRIIB monomer
Description: as §1

[5] = biological target: T3, monomeric hActRIIB; assay: SPR (Biacore), 37 C, antibody captured on anti-hFc IgG chip, monomeric ActRIIB injected, KD = kd/ka
Description: as §1

[6] = biological target: T1, dimeric hActRIIA; assay: SPR (Biacore), 37 C, antibody captured on anti-hFc IgG chip, dimeric ActRIIA injected, 1:1 model
Description: as §1

[7] = biological target: T1, dimeric hActRIIA; assay: SPR (Biacore), 37 C, antibody captured on anti-hFc IgG chip, dimeric ActRIIA injected, KD = kd/ka
Description: as §1

[8] = biological target: T4, monomeric hActRIIA (human, UniProt P27037 20-135, limits assumed); assay: SPR (Biacore), 37 C, antibody captured on anti-hFc IgG chip, monomeric ActRIIA injected, 1:1 model
T4 construct: also called ActRIIA MONOMER; ActRIIA monomer
Description: as §1

[9] = biological target: T4, monomeric hActRIIA; assay: SPR (Biacore), 37 C, antibody captured on anti-hFc IgG chip, monomeric ActRIIA injected, KD = kd/ka
Description: as §1

T3 sequence (Q13705 19-134 limits assumed): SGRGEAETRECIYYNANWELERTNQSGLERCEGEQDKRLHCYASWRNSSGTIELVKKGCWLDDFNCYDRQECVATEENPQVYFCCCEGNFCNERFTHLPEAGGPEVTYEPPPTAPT
T2 sequence (Q13705 19-134): as the sequence (Q13705 19-134 limits assumed) above
T1 sequence (P27037 20-135): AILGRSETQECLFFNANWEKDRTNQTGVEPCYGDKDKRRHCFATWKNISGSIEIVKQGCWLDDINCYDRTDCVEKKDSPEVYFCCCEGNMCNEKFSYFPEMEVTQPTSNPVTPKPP
T4 sequence (P27037 20-135 limits assumed): as the sequence (P27037 20-135) above

B2: P01 (antibody, V domains shown)
VH: EVQLLESGGGLVQPGGSLRLSCAASGFTFSSYAMSWVRQAPGKGLEWVSAISGSGGSTSYADSVKGRFTISRDNSKNTLYLQMNSLRAEDTAVYYCARLPQYSRPFDYWGQGTLVTVSS
VL: DIQMTQSPSSVSASVGDRVTITCRASQGISSWLAWYQQKPGKAPKLLIYAASSLQSGVPSRFSGSGSGTDFTLTISSLQPEDFATYYCQQGHSFPLTFGGGTKVEIK
notes: Naive human IgG; also called P01 antibody; mAB P01
binding result [1]: no binding
koff [2]: 0.0145 s⁻¹
kon [2]: 388000 M⁻¹ s⁻¹
Kd [3]: 37.4 nM

B4: K01 (antibody, human IgG1, kappa, V domains shown)
VH: QLQLQESGPGLVKPSETLSLTCTVSGGSISSSSYYWGWIRQPPGKGLEWIGSISYSGSTYYNPSLKSRVTISVDTSKNQFSLKLSSVTAADTAVYYCARDSLRYGMDVWGQGTTVTVSS
VL: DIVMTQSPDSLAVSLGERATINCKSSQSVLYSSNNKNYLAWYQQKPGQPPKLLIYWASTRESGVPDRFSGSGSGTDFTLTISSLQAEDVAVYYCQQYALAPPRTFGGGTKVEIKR
notes: Naive human IgG from a yeast library; It was captured on an anti-hFc IgG chip in the SPR assay; also called K01 antibody; mAB K01
binding result [1]: no binding
koff [2]: 0.000683 s⁻¹
kon [2]: 104000 M⁻¹ s⁻¹
Kd [3]: 6.57 nM
koff [4]: 0.00237 s⁻¹
kon [4]: 148000 M⁻¹ s⁻¹
Kd [5]: 16 nM

B5: N01 (antibody, human IgG1, kappa, V domains shown)
VH: B4 VH
VL: DIQMTQSPSTLSASVGDRVTITCRASQSIGSWLAWYQQKPGKAPKLLIYKASSLESGVPSRFSGSGSGTEFTLTISSLQPDDFATYYCQVYGSYSPRTFGGGTKVEIKR
notes: also called N01 antibody; mAB N01
binding result [1]: no binding
koff [2]: 0.000335 s⁻¹
kon [2]: 182000 M⁻¹ s⁻¹
Kd [3]: 1.84 nM
koff [4]: 0.00769 s⁻¹
kon [4]: 416000 M⁻¹ s⁻¹
Kd [5]: 18.5 nM

The remaining binders from weak to strong by Kd [3], led by results:

binding result [1]: no binding
koff [2]: 0.000365 s⁻¹
kon [2]: 212000 M⁻¹ s⁻¹
Kd [3]: 1.72 nM
koff [4]: 0.0179 s⁻¹
kon [4]: 921000 M⁻¹ s⁻¹
Kd [5]: 19.5 nM
B6: L01 (antibody, human IgG1, kappa, V domains shown)
VH: B4 VH
VL: EIVMTQSPATLSVSPGERATLSCRASQSVSSNLAWYQQKPGQAPRLLIYGASTRATGIPARFSGSGSGTEFTLTISSLQSEDFAVYYCQVYNVWPRTFGGGTKVEIKR
notes: Naive human IgG; also called L01 antibody; mAB L01

binding result [1]: no binding
koff [2]: 3.24e-05 s⁻¹
kon [2]: 304000 M⁻¹ s⁻¹
Kd [3]: 0.107 nM
koff [4]: 8.72e-05 s⁻¹
kon [4]: 1.16e+06 M⁻¹ s⁻¹
Kd [5]: 0.0755 nM
B1: M01 (antibody, V domains shown)
VH: EVQLLESGGGLVQPGGSLRLSCAASGFTFGSYGMTWVRQAPGKGLEWVSVISGSGGGTYYADSVKGRFTISRDNSKNTLYLQMNSLRAEDTAVYYCAKGPRVVGMDVWGQGTTVTVSS
VL: B2 VL with F71Y, G91V, H92F, F94Y
notes: Optimized human IgG; It was captured through its Fc on an anti-hFc IgG chip; also called M01 antibody; mAB M01

koff [6]: 9.31e-05 s⁻¹
kon [6]: 484000 M⁻¹ s⁻¹
koff [2]: 1.69e-05 s⁻¹
kon [2]: 452000 M⁻¹ s⁻¹
Kd [7]: 0.192 nM
Kd [3]: 0.0374 nM
koff [8]: 0.00259 s⁻¹
kon [8]: 828000 M⁻¹ s⁻¹
koff [4]: 0.00022 s⁻¹
kon [4]: 1.05e+06 M⁻¹ s⁻¹
Kd [9]: 3.13 nM
Kd [5]: 0.209 nM
B3: J01 (antibody, V domains shown)
VH: QVQLVQSGAEVKKPGASVKVSCKASGYTFTSYRMHWVRQAPGQGLEWMGFIVPSGGSTSYAQKFQGRVTMTRDTSTSTVYMELSSLRSEDTAVYYCARVSRYAPEPMDVWGQGTTVTVSS
VL: B2 VL with S31R, G91A, H92F, F94H, L96W
notes: also called J01 antibody; mAB J01
